Test results reported in patent US20250145711A1 (Janssen / Centocor, published 2025).

What was measured:
[1] = molecular target: T1, Human CD3 epsilon (CD3ε), on primary human pan T cells (human, UniProt P07766 23-207); assay: cell-based or functional assay
[2] = molecular target: T1, Human CD3 epsilon (CD3ε), on primary …; assay: flow cytometry on human T cells, anti-human IgG Fc A647 detection
Description: The bsAbs were assayed for their abilities bind T cells and to induce T-cell mediated cytotoxicity against H929 cells (ATCC@CRL-9068™). […] Stain buffer with no antibody was added to bottom 4 wells and assign as background control (secondary antibody alone). Parental Cris7b, CD3B695 (bivalent mAb controls) and CD3B375 (bsAb which was monovalent for Cris-7b) were added also with full dose-response curves.
Frozen T-cells were thawed in a 37° C. water bath and transferred gently into conical tube containing warm 5 mL media (RPMI+10% FBS)/1 vial of 1×10⁶ cells. Cells were mixed and centrifuged for 5 minutes at 400×g followed by resuspension in flow staining buffer, and counted and viability checked. Cells were then plated in 50 uL/50,000 cells/well into assay plates. Assay positive control mAb was added in the first column in quadruplicates at 2× at 20 nM in the bottom 4 wells. Stain buffer with no mAb was added to the top 4 wells and assigned as background controls (secondary antibody alone). Serially diluted antibody samples were added at 50 uL/well using Intergra Viaflo according to the attached plate maps and incubated for 1 hr at 37° C. After one hour incubation, 150 uL staining buffer were added to all wells, and cells were spun at 500×g for 5 minutes to pellet cells. Cells were then washed prior to addition of Alexa Fluor 647 (A647) conjugated anti human IgG Fc specific secondary detection antibody at 2 ug/mL in staining buffer. Secondary detection antibody was added at 50 uL/well to the washed cells. Plates were covered with foil and incubated for 30 minutes on ice or in the fridge. 150 uL staining buffer were added to all wells, and cells were spun at 500×g for 5 min to pellet cells. Cells were resuspended in 20 uL running buffer containing 1:1000 dilution of SYTOX™ green dead cell stain and run plates on iQue® Screener flow cytometer (Essen BioScience, Inc.). Briefly, cells were gated on FCS vs. SCS dot plot to eliminate debris. Singlets were gated on SCS-A vs SCS-H dot plot and from singlet population, live cells gated choosing BL1 channel for low/negative with SYTOX™ green viability stain (Thermo Fisher).

[3] = molecular target: T1, Human CD3 epsilon (CD3ε), on primary …; assay: cell-based or functional assay; remark: listed apart in the source
[4] = molecular target: T2, human PSMA on prostate cancer cell lines (22RV1, C4-2B) (human, UniProt Q04609 1-750); assay: flow cytometry on C4-2B cells, four-parameter fit
T2 construct: also called PSMA-expressing cell lines
Description: Molecule concentrations ranged from 500-0 nM over 12-points at 3-fold dilution. […] Values reported in the Table 69 were generated by fitting the data to a four-parameter function for ligand binding generating values for y-min, y-max, EC50, and Hill. EC90 were calculated using the equation EC90=[…]\hat{ }(1/Hill)*EC50.

recombinant human PSMA = molecular target: T3, recombinant human PSMA (human, UniProt Q04609 44-750); assay: SPR (Biacore 8K), antibody captured on anti-Fc, PSMA in solution
T3 construct: also called hu PSMA; prostate-specific membrane antigen
Description: The antibodies were captured on a goat anti-Fc antibody-modified C1 chip and titrated with 3-fold serial dilutions of PSMA antigen spanning concentrations of 1 nM to 100 nM human PSMA. The association and dissociation were monitored for 3 and 30 minutes, respectively, using a flow rate of 50 μL/min. Raw binding data was referenced by subtracting the analyte binding signals from blanks and analyzed using a 1:1 Langmuir binding model by the Biacore Insight evaluation software to obtain the kinetics which were used to calculate the binding affinity. The anti-PSMA were captured using an anti-human Fc antibody and the antigens were injected in solution.

T1 sequence (P07766 23-207 limits assumed): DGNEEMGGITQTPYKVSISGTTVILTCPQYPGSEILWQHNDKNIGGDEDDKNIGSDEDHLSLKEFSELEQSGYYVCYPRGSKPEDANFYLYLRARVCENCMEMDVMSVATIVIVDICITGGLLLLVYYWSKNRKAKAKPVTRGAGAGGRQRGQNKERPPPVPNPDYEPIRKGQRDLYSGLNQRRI
T3 sequence (Q04609 44-750 limits assumed): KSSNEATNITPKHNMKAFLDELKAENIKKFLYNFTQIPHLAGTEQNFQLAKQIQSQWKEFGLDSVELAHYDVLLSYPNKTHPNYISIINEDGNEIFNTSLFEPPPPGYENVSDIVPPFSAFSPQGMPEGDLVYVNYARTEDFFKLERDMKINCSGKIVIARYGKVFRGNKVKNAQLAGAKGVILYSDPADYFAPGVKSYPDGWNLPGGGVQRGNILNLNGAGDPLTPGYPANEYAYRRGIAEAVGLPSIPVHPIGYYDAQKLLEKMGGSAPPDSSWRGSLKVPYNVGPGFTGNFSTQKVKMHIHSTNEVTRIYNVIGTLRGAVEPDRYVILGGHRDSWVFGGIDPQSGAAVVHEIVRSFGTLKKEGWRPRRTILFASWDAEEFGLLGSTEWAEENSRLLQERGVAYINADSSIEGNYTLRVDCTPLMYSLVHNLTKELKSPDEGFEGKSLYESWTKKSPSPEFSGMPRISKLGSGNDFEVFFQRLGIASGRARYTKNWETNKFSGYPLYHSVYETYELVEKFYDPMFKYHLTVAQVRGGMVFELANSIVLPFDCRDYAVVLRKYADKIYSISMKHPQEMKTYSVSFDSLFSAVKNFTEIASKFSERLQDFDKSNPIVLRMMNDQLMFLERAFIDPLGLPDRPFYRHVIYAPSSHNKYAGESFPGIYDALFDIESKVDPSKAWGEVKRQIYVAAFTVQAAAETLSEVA
T2 sequence (Q04609 whole entry): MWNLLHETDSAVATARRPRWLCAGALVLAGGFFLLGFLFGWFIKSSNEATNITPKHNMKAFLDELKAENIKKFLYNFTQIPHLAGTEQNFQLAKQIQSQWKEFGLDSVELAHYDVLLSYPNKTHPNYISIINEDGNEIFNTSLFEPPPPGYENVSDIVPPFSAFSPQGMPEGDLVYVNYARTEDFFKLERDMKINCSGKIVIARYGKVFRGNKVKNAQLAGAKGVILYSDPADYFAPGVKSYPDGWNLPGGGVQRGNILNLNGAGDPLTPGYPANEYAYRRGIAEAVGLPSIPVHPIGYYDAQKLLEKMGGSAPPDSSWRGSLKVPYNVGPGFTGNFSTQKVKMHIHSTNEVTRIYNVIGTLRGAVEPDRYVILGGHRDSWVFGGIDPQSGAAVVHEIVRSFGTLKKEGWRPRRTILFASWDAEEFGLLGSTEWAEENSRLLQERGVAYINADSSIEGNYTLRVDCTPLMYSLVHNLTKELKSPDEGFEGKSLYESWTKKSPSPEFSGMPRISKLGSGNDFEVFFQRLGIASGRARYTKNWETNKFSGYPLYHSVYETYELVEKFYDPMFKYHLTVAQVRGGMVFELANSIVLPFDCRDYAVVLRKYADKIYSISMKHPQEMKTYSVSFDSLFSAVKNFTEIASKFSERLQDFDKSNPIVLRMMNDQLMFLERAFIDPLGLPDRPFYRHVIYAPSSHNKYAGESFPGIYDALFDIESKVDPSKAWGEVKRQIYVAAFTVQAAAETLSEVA

Binder | H929 Killing EC50 [1] | EC50 [2] | EC50, Cytotoxicity [3] | EC50 [4] | EC90 [4] | Y-max [4] | Y-min [4] | Kd (recombinant human PSMA) | koff (recombinant human PSMA) | kon (recombinant human PSMA)
BC3B129 (bispecific antibody, human IgG1, kappa, L234A L235A, IgG1 BCMAxCD3; HC1: CD3B2089-N106S LH scFv-Fc; also called BC3B129.001; B2089 LH NtoS) EIVLTQSPATLSASPGERVTLSCSASSSVSYMNWYQQKPGQAPRRWIYDSSKLASGVPARFSGSGSGRDYTLTISSLEPEDFAVYYCQQWSRNPPTFGGGTKVEIKGGSEGKSSGSGSESKSTGGSQVQLVQSGAEVKKPGSSVKVSCKASGYTFTRSTMHWVRQAPGQGLEWMGYINPSSAYTNYAQKFQGRVTLTADKSTSTAYMELSSLRSEDTAVYYCASPQVHYDYSGFPYWGQGTLVTVSSEPKSSDKTHTCPPCPAPEAAGGPSVFLFPPKPKDTLMISRTPEVTCVVVSVSHEDPEVKFNWYVDGVEVHNAKTKPREEQYNSTYRVVSVLTVLHQDWLNGKEYKCKVSNKALPAPIEKTISKAKGQPREPQVYVYPPSREEMTKNQVSLTCLVKGFYPSDIAVEWESNGQPENNYKTTPPVLDSDGSFALVSKLTVDKSRWQQGNVFSCSVMHEALHNHYTQKSLSLSPG heavy: not shown light: EIVLTQSPGTLSLSPGERATLSCRASQSISSSFLTWYQQKPGQAPRLLIYGASSRATGIPDRFSGGGSGTDFTLTISRLEPEDFAVYYCQHYGSSPMYTFGQGTKLEIKRTVAAPSVFIFPPSDEQLKSGTASVVCLLNNFYPREAKVQWKVDNALQSGNSQESVTEQDSKDSTYSLSSTLTLSKADYEKHKVYACEVTHQGLSSPVTKSFNRGEC | 10 nM | 300 nM |  |  |  |  |  |  |  | 
GCDB131 (bispecific antibody, human IgG1, kappa, L234A L235A) heavy: QVQLLQSAAEVKKPGESLKISCKGSGYTFTRSTMHWVRQTPGKGLEWMGYINPSSAYTNYNQKFKDQVTISADKSISTAYLQWSSLKASDTAMYYCARPQVHYDYNGFPYWGQGTLVTVSSASTKGPSVFPLAPSSKSTSGGTAALGCLVKDYFPEPVTVSWNSGALTSGVHTFPAVLQSSGLYSLSSVVTVPSSSLGTQTYICNVNHKPSNTKVDKKVEPKSCDKTHTCPPCPAPEAAGGPSVFLFPPKPKDTLMISRTPEVTCVVVSVSHEDPEVKFNWYVDGVEVHNAKTKPREEQYNSTYRVVSVLTVLHQDWLNGKEYKCKVSNKALPAPIEKTISKAKGQPREPQVYVYPPSREEMTKNQVSLTCLVKGFYPSDIAVEWESNGQPENNYKTTPPVLDSDGSFALVSKLTVDKSRWQQGNVFSCSVMHEALHNHYTQKSLSLSPG light: EIVLTQSPSAMSASVGDRVTITCSASSSVSYMNWYQQKPGKVPKRLIYDSSKLASGVPSRFSGSGSGTEYTLTISSLQPEDFATYYCQQWSRNPPTFGQGTMLEIKRTVAAPSVFIFPPSDEQLKSGTASVVCLLNNFYPREAKVQWKVDNALQSGNSQESVTEQDSKDSTYSLSSTLTLSKADYEKHKVYACEVTHQGLSSPVTKSFNRGEC not shown |  |  | 0.0334 nM |  |  |  |  |  |  | 
PSMB1052 (bispecific antibody, HC1 (ZWA): B23B62-Fab; LC2 is NA) heavy: not shown light: not shown SYELTQPPSVSVAPGQTARITCGGNNIGSKSVHWYQQKPGQAPVLVVYDDSDRPSGIPERFSGSNSGNTATLTISRVEAGDEADYYCQVWDSSTDHVVFGGGTKLTVLGGSEGKSSGSGSESKSTGGSEVQLVESGGGVVQPGRSLRLSCAASGFTFSSYGMNWVRQAPGKGLEWVAVTSYDGSNKYYADSVKGRFTISRDISKNTLYLQMSSLRAEDTAVYYCARDPYSSSWNGAFDIWGPGTMVTVSSEPKSSDKTHTCPPCPAPEAAGGPSVFLFPPKPKDTLMISRTPEVTCVVVSVSHEDPEVKFNWYVDGVEVHNAKTKPREEQYNSTYRVVSVLTVLHQDWLNGKEYKCKVSNKALPAPIEKTISKAKGQPREPQVYVLPPSREEMTKNQVSLLCLVKGFYPSDIAVEWESNGQPENNYLTWPPVLDSDGSFFLYSKLTVDKSRWQQGNVFSCSVMHEALHNHYTQKSLSLSPG |  |  |  | 13 nM | 100 nM | 1.5e+06 | 68000 | 1.61 nM | 0.000315 s⁻¹ | 196000 M⁻¹ s⁻¹
PSMB1069 (bispecific antibody, human IgG1, kappa, L234A L235A, HC1 (ZWA): B23B62-Fab; LC2 is NA) heavy: not shown light: not shown QVQLVESGGGEVQPGRSLRLSCAASGFSFSGYGMHWVRQAPGKGLEWVAVMSYDGSNRFYVDSVRGRFSISRDNSKNTLYLQMNSLRPEDTAVYYCARDTVWGSHPDAFDIWGQGTVVTVSSGGSEGKSSGSGSESKSTGGSQSVLTQPPSVSVAPGQTARITCGGNNSGSKSVHWYQQKPGQAPVLVVYDDSDRPSGIPERFSGSNSGNTATLTISRVEAGDEADYYCQVWDSSSDHGVFGGGTKLTVLEPKSSDKTHTCPPCPAPEAAGGPSVFLFPPKPKDTLMISRTPEVTCVVVSVSHEDPEVKFNWYVDGVEVHNAKTKPREEQYNSTYRVVSVLTVLHQDWLNGKEYKCKVSNKALPAPIEKTISKAKGQPREPQVYVLPPSREEMTKNQVSLLCLVKGFYPSDIAVEWESNGQPENNYLTWPPVLDSDGSFFLYSKLTVDKSRWQQGNVFSCSVMHEALHNHYTQKSLSLSPG |  |  |  | 44 nM | 254 nM | 3.3e+06 | 87000 | 1.42 nM | 0.000197 s⁻¹ | 139000 M⁻¹ s⁻¹
PSMB1047 (bispecific antibody, human IgG1, kappa, L234A L235A, HC1 (ZWA): B23B62-Fab; LC2 is NA) heavy: not shown light: not shown QSVLTQPPSVSVAPGQTARITCGGNNSGSKSVHWYQQKPGQAPVLVVYDDSDRPSGIPERFSGSNSGNTATLTISRVEAGDEADYYCQVWDSSSDHGVFGGGTKLTVLGGSEGKSSGSGSESKSTGGSQVQLVESGGGEVQPGRSLRLSCAASGFSFSGYGMHWVRQAPGKGLEWVAVMSYDGSNRFYVDSVRGRFSISRDNSKNTLYLQMNSLRPEDTAVYYCARDTVWGSHPDAFDIWGQGTVVTVSSEPKSSDKTHTCPPCPAPEAAGGPSVFLFPPKPKDTLMISRTPEVTCVVVSVSHEDPEVKFNWYVDGVEVHNAKTKPREEQYNSTYRVVSVLTVLHQDWLNGKEYKCKVSNKALPAPIEKTISKAKGQPREPQVYVLPPSREEMTKNQVSLLCLVKGFYPSDIAVEWESNGQPENNYLTWPPVLDSDGSFFLYSKLTVDKSRWQQGNVFSCSVMHEALHNHYTQKSLSLSPG |  |  |  | 22 nM | 71 nM | 1.6e+06 | 79000 | 2.52 nM | 0.00175 s⁻¹ | 694000 M⁻¹ s⁻¹
PSMB1075 (bispecific antibody, human IgG1, kappa, L234A L235A, HC1 (ZWA): B23B62-Fab; LC2 is NA) heavy: not shown light: not shown EVQLVESGGGVVQPGRSLRLSCAASGFSFSGYGMHWVRQAPGKGLEWVAVISYDGSNKYYADSVKGRFTISRDNSKNTLYLQMNSLRVEDTAVYYCARDRIWGSRGYYYGMDVWGQGTTVTVSSGGSEGKSSGSGSESKSTGGSQSALTQPASVSGSPGQSITISCTGASSDVGGYNYVSWYQQHPGKAPKLMIYEVSNRPSGVSNRFSGSKSGNTASLTISGLQAEDEADYYCSSYTITSTLVFGGGTKLTVLEPKSSDKTHTCPPCPAPEAAGGPSVFLFPPKPKDTLMISRTPEVTCVVVSVSHEDPEVKFNWYVDGVEVHNAKTKPREEQYNSTYRVVSVLTVLHQDWLNGKEYKCKVSNKALPAPIEKTISKAKGQPREPQVYVLPPSREEMTKNQVSLLCLVKGFYPSDIAVEWESNGQPENNYLTWPPVLDSDGSFFLYSKLTVDKSRWQQGNVFSCSVMHEALHNHYTQKSLSLSPG |  |  |  | 30 nM | 156 nM | 1.3e+06 | 66000 | 0.936 nM | 0.000492 s⁻¹ | 526000 M⁻¹ s⁻¹
PSMB1060 (bispecific antibody, human IgG1, kappa, L234A L235A, HC1 (ZWA): B23B62-Fab; LC2 is NA) heavy: not shown light: not shown EIVLTQSPGTLSVSPGERATLSCRASQSVRSNLAWYQQKPGQAPRLLIYGASTRATGIPARFSGSGSGTEFTLTISSLQSEDFAVYYCHQYNDWPPYTFGQGTKLEIKGGSEGKSSGSGSESKSTGGSQVQLQESGGGVVQPGRSLRLSCAASGFTFSTYGMHWVRQAPGKGLEWVAFISYDGSNKYYADSVKGRFTISRDNSKHTLYLQMNSLRAEDTAVYYCAGRDNLRFLEWFMDVWGQGTTVTVSSEPKSSDKTHTCPPCPAPEAAGGPSVFLFPPKPKDTLMISRTPEVTCVVVSVSHEDPEVKFNWYVDGVEVHNAKTKPREEQYNSTYRVVSVLTVLHQDWLNGKEYKCKVSNKALPAPIEKTISKAKGQPREPQVYVLPPSREEMTKNQVSLLCLVKGFYPSDIAVEWESNGQPENNYLTWPPVLDSDGSFFLYSKLTVDKSRWQQGNVFSCSVMHEALHNHYTQKSLSLSPG |  |  |  | 11 nM | 59 nM | 1.6e+06 | 86000 | 1.02 nM | 0.000119 s⁻¹ | 117000 M⁻¹ s⁻¹
